Laboratory results taken from patent publication US20240000938A1 (published 2024).
Values belong to the binder of their own block, whether it stands above or below them.

Columns and labels:
Assay in all cases: activation reporter or marker
[1] = molecular target: T1, HA-1 variant H, HA-1(H); Rho GTPase activating protein 45 (HMHA1) peptide on HLA-A*02:01 (human)
T1 peptide: VLHDDLLEA

[2] = molecular target: T2, HA-1(R), allelic variant; Rho GTPase activating protein 45 (HMHA1) peptide on HLA-A*02:01 (human)
T2 peptide: VLRDDLLEA

[3] = molecular target: T3, mH-Y (MiHA-Y) peptide on H-2Db (mouse)
T3 peptide: KCSRNRQYL

binding result [1]: recognises
binding result [2]: no recognition
B1: KP7 HA-1H TCR (TCR, V domains shown)
Valpha: KNEVEQSPQNLTAQEGEFITINCSYSVGISALHWLQQHPGGGIVSLFMLSSGKKKHGRLIATINIQEKHSSLHITASHPRDSAVYICAVRSVSGAGSYQLTFGKGTKLSVIP
Vbeta: DTGVSQNPRHKITKRGQNVTFRCDPISEHNRLYWYRQTLGQGPEFLTYFQNEAQLEKSRLLSDRFSAERPKGSFSTLEIQRTEQGDSAMYLCASSIDSFNEQFFGPGTRLTVL

binding result [3]: recognises
B2: H-Y TCR Jb2.3L (TCR, V domains shown)
Valpha: AQSVDQPDAHVTLSEGASLELRCSYSYSAAPYLFWYVQYPGQSLQFLLKYITGDTVVKGTKGFEAEFRKSNSSFNLKKSPAHWSDSAKYFCALEGQDQGGSAKLIFGEGTKLTVSS
Vbeta: EAAVTQSPRNKVAVTGGKVTLSCNQTNNHNNMYWYRQDTGHGLRLIHYSYGAGSTEKGDIPDGYKASRPSQENFSLILELATPSQTSVYFCASGDNSAETLYFGPGTRLLVL
